From US20260001953A1
pKd: −log10 of the molar value.

Target: Sialic acid-binding immunoglobulin-like lectin 8 (SIGLEC-8), antigen of the Carterra SPR studies (UniProt Q9NYZ4)
Assay: SPR cross-reactivity table

Sialic acid-binding immunoglobulin-like lectin 8 (SIGLEC-8), antigen of the Carterra SPR studies, sequence (Q9NYZ4 17-363 limits assumed): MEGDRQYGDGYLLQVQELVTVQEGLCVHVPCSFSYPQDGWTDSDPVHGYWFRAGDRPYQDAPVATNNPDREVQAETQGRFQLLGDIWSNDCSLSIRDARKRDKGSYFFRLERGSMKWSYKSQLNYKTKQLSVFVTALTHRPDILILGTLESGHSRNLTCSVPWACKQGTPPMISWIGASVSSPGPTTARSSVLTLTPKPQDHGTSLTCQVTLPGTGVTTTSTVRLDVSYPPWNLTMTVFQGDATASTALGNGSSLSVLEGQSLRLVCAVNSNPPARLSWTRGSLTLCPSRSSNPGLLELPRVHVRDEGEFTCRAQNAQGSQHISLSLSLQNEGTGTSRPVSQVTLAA

pKd: 10.51
Substance: Control (antibody)
